Measurements reported in IntAct's records for PubMed 25394380.

Molecular target: aph1a_human APH1A (UniProt Q96BI3)
Sequence (Q96BI3 whole entry): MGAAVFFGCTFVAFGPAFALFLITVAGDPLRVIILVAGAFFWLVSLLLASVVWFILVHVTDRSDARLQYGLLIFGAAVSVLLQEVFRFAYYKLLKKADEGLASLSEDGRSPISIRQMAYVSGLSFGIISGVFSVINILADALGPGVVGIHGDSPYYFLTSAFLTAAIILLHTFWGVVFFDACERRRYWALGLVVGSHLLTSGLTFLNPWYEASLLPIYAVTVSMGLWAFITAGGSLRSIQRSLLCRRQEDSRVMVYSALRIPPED

In the case of “Presenilin-1 (Homo sapiens) (from UniProt P49768) G206D”, the “effect of a mutation on the interaction” value is reported as “with no effect”.
